Test results published in patent US11319374B2, “Inhibitors of prototypic galectin dimerization and uses thereof” (INSTITUT NATIONAL DE LA RECHERCHE SCIENTIFIQUE, priority 2015, dated 2022).

Legend:
Jurkat T cells [1] = assay: Apoptosis/toxicity of peptide alone in Jurkat T cells, Annexin V/PI; assay type: cell-based
Description: FIG. 8A: Flow cytometry histogram showing propidium iodide (PI) (FL3) labeling of Jurkat T cells without or with 200 μM of hGal-7(129-135). FIG. 8B: Histogram showing the average percentage of Annexin-V (AV) positive Jurkat T cells in the presence of increasing concentrations of […]. FIG. 8C: Flow cytometry histogram showing PI (FL3) labeling of Jurkat T cells without or with 200 μM of PACAP28-38 FIG. 8D: Histogram showing the average percentage of AV-positive Jurkat T cells in the presence of increasing concentrations of PACAP28-38. The percentage of cell death was obtained as described above. Error bars represent standard deviation. Significance was calculated with respect to AF samples. Results are representative of three independent experiments.
Apoptosis assays with Annexin V/PI staining. Apoptosis was measured by flow cytometry using FITC-labeled Annexin V (Biolegend®, San Diego, Calif., USA) and propidium iodide. Briefly, the corresponding dilutions of recombinant hGal-7 and hGal-7(129-135) peptides were pre-incubated for 1 h at 4° C. in serum-free RPMI 1640 medium. 2.5×10^5 Jurkat cells were then harvested in the same medium and incubated with their corresponding dilutions at 37° C. for 4 h. Cells were washed once in PBS and once in binding buffer (0.01 M HEPES, 0.14 M NaCl, 2.5 mM CaCl2, pH 7.4). Cells were then incubated for 15 min with Annexin V in the dark at room temperature. A total of 400 μL of binding buffer containing 0.25 μg/mL propidium iodide was added to the cells before analysis by flow cytometry.

Jurkat T cells [2] = assay: hGal-7-induced apoptosis of Jurkat T cells, PARP-1 cleavage by Western blotting; assay type: cell-based; settings: 4 h at 37° C., serum-free RPMI, FIG. 5A
Description: Western blotting. For the apoptosis tests, whole-cell extracts were homogenized and resuspended in RIPA buffer (Thermo Fisher Scientific®, Rockford, Ill., USA) containing protease inhibitors (Roche®, Laval, QC, Canada). Equal amounts of whole-cell extracts (25 μg) were separated on SDS-PAGE and transferred onto nitrocellulose membranes (Bio-Rad Laboratories®). The membranes were first blocked with 5% milk [w/v] in TBS/0.5% Tween® 20 [v/v] for 1 h at room temperature and subsequently blotted overnight in a solution of TBS containing 3% BSA [w/v] and 0.5% Tween 20 [v/v]. The following antibodies were used: a rabbit anti-Poly-(ADP-ribose) polymerase (PARP)-1 (p25) polyclonal antibody (1:5000; Epitomics®, Burlingame, Calif., USA) and a mouse anti-β-actin (1:10000; Sigma-Aldrich®, St-Louis, Mo., USA). Secondary antibodies consisted of horseradish peroxidase-conjugated donkey anti-rabbit (GE Healthcare®, Buckinghamshire, England) and sheep anti-mouse (GE Healthcare®) IgG. […]
It was thus tested whether hGal-7(129-135) could modulate the binding of hGal-7 on Jurkat T cells, a cell model that is commonly used to test the pro-apoptotic activity of galectins. For this purpose, recombinant hGal-7 was labeled with fluorescein isothiocyante (FITC) and its binding on the surface of Jurkat T cells was measured by flow cytometry in absence or presence of increasing concentrations of hGal-7(129-135). […]

Question: With “H-Leu-Asp-Ser-Val-Arg-Ile-Phe-NH2 (H-LDSVRIF-NH2; listed as Homo sapiens) [hGal-7(129-135), peptide corresponding to residues 129-135 of hGal-7]” as the substance, how does the “toxicity in Jurkat T cells” value (Jurkat T cells [1]; PI labeling at 200 μM, Annexin V at increasing concentrations, FIGS. 8A to 8D) read?
Answer: do not induce toxicity in Jurkat T cells

Question: And the “induction of apoptosis by peptide alone” value (Jurkat T cells [1]; peptide alone, FIG. 8)?
Answer: did not induce apoptosis in Jurkat T cells

Question: And the “inhibition of hGal-7-induced apoptosis, PARP-1 cleavage” value (Jurkat T cells [2])?
Answer: inhibited the ability of hGal-7 to induce apoptosis in Jurkat T cells
